What was measured:
[1] = biological target: FcγRIIb on the cell surface (UniProt P31994); experiment: binding to cell-surface FcγRIIb (cells and method not stated)
[2] = biological target: recombinant human FcγRIIb (human) (UniProt P31994); experiment: SPR (Biacore), global Langmuir fit

EC50 [1]: 2 nM
Fold (cell surface EC50 against native IgG1) [1]: 220 fold
Fold (KD(Native IgG1)/KD(variant)) [2]: 150 fold
Kd [2]: 12 nM
Substance: S239D/S267E (antibody)
